The record followed here is patent publication US20100036095A1.

The target in assay [1] is C8/C9 (complement components C8 and C9 of normal human serum, in the assembling membrane attack complex) (human) (UniProt P07357). The assay can be described thus: cell-based or functional assay.
The target of assay [2] is human CD59 51A plus 20-23A (human) (UniProt P13987). The assay can be described thus: flow cytometry on CHO cells expressing the CD59 form. A general note: In flow cytometry, cells or beads pass a laser one at a time.
For another assay, the target named is human CD59 D24A (human) (UniProt P13987). The assay is described as above.
For the next assay, the target named is human CD59 T52A (human) (UniProt P13987). Described as above.
The target in the next assay is human CD59 5R (human) (UniProt P13987). The description is as above.
In the next assay the target is human CD59 9R (human) (UniProt P13987). The description is as above.
The target in assay [3] is human CD59 20A23A (human) (UniProt P13987). Described as above.
The next assay concerns the target human CD59 F23G (human) (UniProt P13987). The assay is described as above.
Assay [4] has as its target wild type human CD59, epitope-tagged, GPI-anchored on CHO cells (human) (UniProt P13987). Described as above.
In another assay the target is human CD59 F42A (human) (UniProt P13987). Described as above.
For another assay, the target named is human CD59 W40A (human) (UniProt P13987). Described as above.
Another assay deals with human CD59 H44A (human) (UniProt P13987). Described as above.
human CD59 H44A (human), sequence (P13987 26-102 H69A): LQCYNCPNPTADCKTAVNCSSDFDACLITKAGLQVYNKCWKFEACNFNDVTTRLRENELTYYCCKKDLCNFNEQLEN

human CD59 D24A (human), sequence (P13987 26-102 D49A): as the sequence (P13987 26-102 H69A) above, with D24A, A44H counted along it
human CD59 T52A (human), sequence (P13987 26-102, stated change not applied): as the sequence (P13987 26-102 H69A) above, with A44H counted along it
wild type human CD59, epitope-tagged, GPI-anchored on CHO cells (human), sequence (P13987 26-102 limits assumed): as the sequence (P13987 26-102 H69A) above, with A44H counted along it
human CD59 20A23A (human), sequence (P13987 other isoform, or with tags, fused parts or gaps): as the sequence (P13987 26-102 H69A) above, with S20A, F23A, A44H counted along it
human CD59 F23G (human), sequence (P13987 26-102 F48G): as the sequence (P13987 26-102 H69A) above, with F23G, A44H counted along it
human CD59 F42A (human), sequence (P13987 26-102 F67A): as the sequence (P13987 26-102 H69A) above, with F42A, A44H counted along it
human CD59 W40A (human), sequence (P13987 26-102 W65A): as the sequence (P13987 26-102 H69A) above, with W40A, A44H counted along it
human CD59 51A plus 20-23A (human), sequence (P13987 other isoform, or with tags, fused parts or gaps): as the sequence (P13987 26-102 H69A) above, with S20A, S21A, D22A, F23A, A44H, T51A counted along it
human CD59 5R (human), sequence (P13987 26-102): as the sequence (P13987 26-102 H69A) above, with A44H counted along it
human CD59 9R (human), sequence (P13987 26-102): as the sequence (P13987 26-102 H69A) above, with A44H counted along it
C8/C9 (complement components C8 and C9 of normal human serum, in the assembling membrane attack complex) (human), sequence (P07357 31-584 limits assumed, chain 1 of 4): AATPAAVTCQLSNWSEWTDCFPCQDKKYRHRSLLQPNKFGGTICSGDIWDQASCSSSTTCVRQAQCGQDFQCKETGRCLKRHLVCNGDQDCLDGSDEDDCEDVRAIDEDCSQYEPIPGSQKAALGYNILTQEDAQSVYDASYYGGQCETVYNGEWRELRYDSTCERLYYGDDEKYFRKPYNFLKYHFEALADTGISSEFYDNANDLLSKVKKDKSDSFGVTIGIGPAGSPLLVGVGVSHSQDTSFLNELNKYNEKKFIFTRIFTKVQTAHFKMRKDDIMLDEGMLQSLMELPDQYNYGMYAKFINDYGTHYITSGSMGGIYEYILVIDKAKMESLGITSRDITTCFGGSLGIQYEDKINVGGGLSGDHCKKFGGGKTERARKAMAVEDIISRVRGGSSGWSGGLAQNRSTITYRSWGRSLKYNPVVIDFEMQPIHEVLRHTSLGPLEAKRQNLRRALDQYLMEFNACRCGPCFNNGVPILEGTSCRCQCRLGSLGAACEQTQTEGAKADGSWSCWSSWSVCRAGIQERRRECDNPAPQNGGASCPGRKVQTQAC
C8/C9 (complement components C8 and C9 of normal human serum, in the assembling membrane attack complex) (human), sequence (P07358 55-591 limits assumed, chain 2 of 4, further chain): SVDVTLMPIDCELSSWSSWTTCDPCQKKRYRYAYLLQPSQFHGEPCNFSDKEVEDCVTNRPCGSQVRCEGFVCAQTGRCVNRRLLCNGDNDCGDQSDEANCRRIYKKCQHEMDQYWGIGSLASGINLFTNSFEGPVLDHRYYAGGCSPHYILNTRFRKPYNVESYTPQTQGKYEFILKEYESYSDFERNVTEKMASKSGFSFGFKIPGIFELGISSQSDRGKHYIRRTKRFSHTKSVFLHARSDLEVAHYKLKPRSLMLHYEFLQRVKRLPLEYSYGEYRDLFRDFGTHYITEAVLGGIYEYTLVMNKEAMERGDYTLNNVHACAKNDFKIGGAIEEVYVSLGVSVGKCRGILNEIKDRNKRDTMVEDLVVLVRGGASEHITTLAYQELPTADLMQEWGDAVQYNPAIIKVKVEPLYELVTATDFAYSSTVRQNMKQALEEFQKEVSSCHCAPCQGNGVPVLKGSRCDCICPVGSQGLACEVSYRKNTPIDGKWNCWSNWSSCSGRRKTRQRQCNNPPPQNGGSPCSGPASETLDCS
C8/C9 (complement components C8 and C9 of normal human serum, in the assembling membrane attack complex) (human), sequence (P07360 21-202 limits assumed, chain 3 of 4, further chain): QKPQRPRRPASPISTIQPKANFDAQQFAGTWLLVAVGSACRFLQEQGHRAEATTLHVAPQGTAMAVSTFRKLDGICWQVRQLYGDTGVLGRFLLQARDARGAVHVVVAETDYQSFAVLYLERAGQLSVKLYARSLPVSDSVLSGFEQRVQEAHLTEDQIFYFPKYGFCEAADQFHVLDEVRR
C8/C9 (complement components C8 and C9 of normal human serum, in the assembling membrane attack complex) (human), sequence (P02748 22-559 limits assumed, chain 4 of 4, further chain): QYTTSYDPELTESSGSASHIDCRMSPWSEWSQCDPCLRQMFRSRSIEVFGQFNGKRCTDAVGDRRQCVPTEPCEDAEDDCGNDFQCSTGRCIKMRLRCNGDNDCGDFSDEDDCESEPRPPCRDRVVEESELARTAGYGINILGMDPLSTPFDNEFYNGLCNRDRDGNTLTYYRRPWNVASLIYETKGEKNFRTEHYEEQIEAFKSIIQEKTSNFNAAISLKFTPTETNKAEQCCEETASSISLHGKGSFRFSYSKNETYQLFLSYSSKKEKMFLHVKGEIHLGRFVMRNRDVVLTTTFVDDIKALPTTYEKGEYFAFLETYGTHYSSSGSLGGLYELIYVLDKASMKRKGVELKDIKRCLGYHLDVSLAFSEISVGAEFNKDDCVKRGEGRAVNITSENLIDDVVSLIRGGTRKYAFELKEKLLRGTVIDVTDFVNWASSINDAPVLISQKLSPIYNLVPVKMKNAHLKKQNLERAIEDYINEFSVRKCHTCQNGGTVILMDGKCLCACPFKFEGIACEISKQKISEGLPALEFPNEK

In the case of “human CD59 51A20A (from UniProt P13987 26-102)”, in assay [1], the increase in inhibitory activity compared to the wt protein is 165 % increase and the inhibitory activity relative to the single mutant T29A was 2 fold of T29A.

Regarding anti-CD59 mAb YTH53.1 (antibody), the percent of relative mean fluorescence compared to wt CD59 was found to be 18.3% in assay [2]; 5% with human CD59 D24A (human); 99.3% with human CD59 T52A (human); 47.9% with human CD59 5R (human); 100% with human CD59 9R (human); 35.7% in [3]. Further, the percent of relative mean fluorescence compared to wt CD59 is 99.3% with human CD59 F23G (human); 100% in [4]; 99.8% with human CD59 F42A (human); 1% in the assay with human CD59 W40A (human); 58.7% with human CD59 H44A (human).

For the substance anti-CD59 mAb MEM43.5 (antibody), the percent of relative mean fluorescence compared to wt CD59 in [2] came out at 98.1%; in the assay with human CD59 D24A (human) it was 1.9%; with human CD59 T52A (human) it was 99.2%; with human CD59 5R (human), 8.2%; with human CD59 9R (human), 98.4%; in assay [3], 97.7%. Also, the percent of relative mean fluorescence compared to wt CD59 in the assay with human CD59 F23G (human) is 98.9%; in [4] it was 100%; with human CD59 F42A (human) it was 99.9%; with human CD59 W40A (human), 0.7%; in the assay with human CD59 H44A (human), 85.9%.

On to anti-CD59 mAb MEM43 (antibody), for which the percent of relative mean fluorescence compared to wt CD59 in assay [2] was found to be 92.3%; with human CD59 D24A (human), 3.5%; with human CD59 T52A (human), 99.2%; in [3] it was 98.1%; with human CD59 F23G (human), 98.8%; in assay [4], 100%. Further, the percent of relative mean fluorescence compared to wt CD59 with human CD59 F42A (human) came out at 99.7%; in the assay with human CD59 W40A (human) it was 6.2%; with human CD59 H44A (human), 88.8%.
